Measurements from patent US20250018005A1.

How the values were obtained:
[1] = target: gp120, a protein in the HIV envelope (HIV); experiment: competition ELISA, Q-GRFT binding to gp120, PBS control (no α-mannan)
[2] = target: gp120, a protein in the HIV envelope (HIV); experiment: competition ELISA, Q-GRFT binding to gp120 in the presence of α-mannan at 0.005 (printed g/mL; the legend of FIG. 3 prints µg/mL)

## Q-Griffithsin (Q-GRFT), recombinant oxidation-resistant variant of griffithsin (M78Q) (from UniProt P84801 1-121)
[1]
  EC50: 72.5 µg/mL
[2]
  EC50: 79.3 µg/mL
